Biological target: T1, β3 integrin (Mus musculus, UniProt O54890+P43406)
T1 construct: we isolated primary CD8+ T-cells from melanoma bearing mice; endogenous in cells; host or cells: primary CD8+ T-cells isolated from melanoma bearing mice
T1 sequence (O54890 26-787): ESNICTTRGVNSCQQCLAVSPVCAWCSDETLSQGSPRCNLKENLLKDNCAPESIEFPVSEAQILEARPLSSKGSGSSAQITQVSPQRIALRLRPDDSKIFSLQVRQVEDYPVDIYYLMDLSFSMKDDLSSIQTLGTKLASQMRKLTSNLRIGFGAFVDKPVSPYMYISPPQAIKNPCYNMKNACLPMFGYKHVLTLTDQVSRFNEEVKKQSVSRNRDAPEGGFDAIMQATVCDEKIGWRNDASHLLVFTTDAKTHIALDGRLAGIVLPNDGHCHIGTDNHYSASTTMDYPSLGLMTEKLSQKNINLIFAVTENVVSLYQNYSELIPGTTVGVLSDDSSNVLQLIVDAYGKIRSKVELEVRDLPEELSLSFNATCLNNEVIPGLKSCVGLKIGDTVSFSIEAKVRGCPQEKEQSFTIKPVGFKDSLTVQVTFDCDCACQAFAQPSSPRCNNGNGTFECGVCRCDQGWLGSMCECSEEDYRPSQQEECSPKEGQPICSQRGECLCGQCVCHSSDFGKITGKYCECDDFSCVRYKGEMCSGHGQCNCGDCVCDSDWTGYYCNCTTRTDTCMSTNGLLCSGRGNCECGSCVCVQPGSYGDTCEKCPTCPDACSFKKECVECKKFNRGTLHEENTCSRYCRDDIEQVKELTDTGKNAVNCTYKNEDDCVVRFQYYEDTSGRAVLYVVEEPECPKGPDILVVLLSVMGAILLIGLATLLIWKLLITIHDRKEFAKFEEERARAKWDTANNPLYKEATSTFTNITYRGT
T1 sequence (P43406 31-885 limits assumed): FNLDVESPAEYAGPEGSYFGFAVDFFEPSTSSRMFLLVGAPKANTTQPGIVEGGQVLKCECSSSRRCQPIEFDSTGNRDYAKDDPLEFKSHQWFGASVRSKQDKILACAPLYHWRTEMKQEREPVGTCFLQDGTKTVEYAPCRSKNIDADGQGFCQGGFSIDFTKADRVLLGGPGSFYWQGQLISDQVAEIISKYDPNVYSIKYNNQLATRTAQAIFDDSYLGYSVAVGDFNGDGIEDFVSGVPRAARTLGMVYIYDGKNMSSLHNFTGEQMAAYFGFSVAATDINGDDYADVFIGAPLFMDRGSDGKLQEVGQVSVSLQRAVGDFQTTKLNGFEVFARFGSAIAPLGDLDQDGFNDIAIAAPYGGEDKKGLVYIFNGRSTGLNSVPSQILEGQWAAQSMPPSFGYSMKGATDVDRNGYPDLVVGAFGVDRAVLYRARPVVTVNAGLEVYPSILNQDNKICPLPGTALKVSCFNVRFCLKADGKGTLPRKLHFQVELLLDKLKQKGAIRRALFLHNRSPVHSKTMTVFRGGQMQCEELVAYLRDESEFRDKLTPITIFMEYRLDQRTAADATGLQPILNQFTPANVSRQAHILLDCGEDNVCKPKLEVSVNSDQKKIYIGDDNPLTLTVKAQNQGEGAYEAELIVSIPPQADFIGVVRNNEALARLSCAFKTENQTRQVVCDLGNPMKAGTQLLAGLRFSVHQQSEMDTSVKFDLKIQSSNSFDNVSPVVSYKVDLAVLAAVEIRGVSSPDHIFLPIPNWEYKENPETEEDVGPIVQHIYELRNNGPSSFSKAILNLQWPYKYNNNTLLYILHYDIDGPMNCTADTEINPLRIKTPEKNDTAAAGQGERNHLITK
T1 sequence (P43406 887-1044 partner limits assumed): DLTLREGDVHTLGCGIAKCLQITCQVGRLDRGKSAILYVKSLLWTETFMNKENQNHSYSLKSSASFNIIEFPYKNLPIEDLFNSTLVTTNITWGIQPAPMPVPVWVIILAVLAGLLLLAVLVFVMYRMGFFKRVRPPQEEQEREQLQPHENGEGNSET
Assay: Western blot of β3 integrin phosphorylation in primary CD8+ T-cells after peptide stimulation
Format: cell-based, murine
Conditions: primary CD8+ T-cells from melanoma bearing mice, compared to control peptide CP
Description: FIGS. 2A-2F. Detection of RGDKGE (SEQ ID NO: 1)-containing collagen peptide in malignant tumor cells and expression of key signaling molecules in T-cells. Briefly, whole cell lysates and serum free concentrated conditioned medium was prepared from tumor cells lines. FIG. 2A. Western blot analysis of whole cell lysates from human C8161 and murine B16F10 melanoma cells for the expression of the low molecular weight 16 kDa RGDKGE (SEQ ID NO: 1)-containing collagen peptide (XL313) or actin as a loading control. FIG. 2B. […]
Whole cell and CAM tissue lysates were collected in RIPA buffer (10 mM Tris-HCl, pH 8.0; 1 mM EDTA; 0.5 mM EGTA; 1% Triton X-100; 0.1% Sodium Deoxycholate; 0.1% SDS; 140 mM NaCl) supplemented with 1× protease inhibitor and 1× phosphatase inhibitor and were run on polyacrylamide gels using denaturing conditions. […] Western blot bands were quantified using Image J software based on pixel intensity.
We previously made the surprising observation that a small bioactive collagen peptide containing the core amino acid sequence RGDKGE (SEQ ID NO: 1) could be generated inside a subset of M2-like activated macrophages as well as a variety of other malignant tumor cells, and then actively secreted outside the cells (11-13). Importantly, minimal levels of this soluble collagen peptide was detected in normal cells (13). […]

β3 integrin phosphorylation: enhanced β3 integrin phosphorylation
Sequence: QGPRGDKGE (CQGPRGDKGEC; Synthetic: Synthetic collagen RGD containing peptide P-2) [Peptide P2, synthetic version of the soluble RGDKGE-containing collagen peptide]
